Laboratory results reported in PMC10986000.

Key:
[1] = target: His-PrsA truncated mutant D3 (amino acids 1 to 146 and 251 to 320; PPIase domain deleted) (S. aureus HG001); experiment: cross-linking; E. coli BL21(DE3) cells expressing His-PrsA, D3 or D4 treated with 1% formaldehyde, 5 min, room temperature, 0.1 M sodium phosphate pH 6.8; His-tagged proteins purified on Ni-NTA; SDS-PAGE after 37 °C or 95 °C, Coomassie, immunoblot, LC-MS/MS of bands
[2] = target: full-length His-tagged PrsA (amino acid 1 to 320) (S. aureus HG001); experiment: as above
[3] = target: protein A (SpA) on the surface of S. aureus HG001 (S. aureus (endogenous in HG001)) (UniProt P02976); experiment: flow cytometry on cells; about 10^5 CFU S. aureus HG001 (also HG001ΔprsA and HG001ΔprsA(pGHL-PrsA)) in 2% BSA-PBS incubated with mouse IgG at 37 °C for 30 min, then FITC-conjugated anti-mouse IgG at 4 °C for 30 min; percent bound relative to the unstained population
UniProt P02976, sequence (P02976 37-485): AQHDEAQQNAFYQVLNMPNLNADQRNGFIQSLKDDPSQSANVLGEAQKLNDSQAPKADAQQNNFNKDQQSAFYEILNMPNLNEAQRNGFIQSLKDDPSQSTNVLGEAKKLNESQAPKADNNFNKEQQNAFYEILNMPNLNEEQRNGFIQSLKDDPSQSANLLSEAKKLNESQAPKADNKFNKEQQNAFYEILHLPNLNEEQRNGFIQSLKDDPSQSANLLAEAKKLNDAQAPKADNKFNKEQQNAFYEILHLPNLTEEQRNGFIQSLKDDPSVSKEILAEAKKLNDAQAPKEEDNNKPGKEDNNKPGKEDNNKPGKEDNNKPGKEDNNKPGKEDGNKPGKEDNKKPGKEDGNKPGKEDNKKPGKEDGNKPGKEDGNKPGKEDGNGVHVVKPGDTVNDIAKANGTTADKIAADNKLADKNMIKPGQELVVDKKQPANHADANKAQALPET

His-PrsA truncated mutant D3 (amino acids 1 to 146 and 251 to 320; PPIase domain deleted) (domain or fragment)
stoichiometry N [1]: 2

full-length His-tagged PrsA (amino acid 1 to 320) (natural protein)
stoichiometry N [2]: 2

mouse immunoglobulin IgG
percent of S. aureus binding to IgG [3]: 41.8%
